In patent US20030021770A1 one finds mean fluorescence and percent of cells positive data, which are given here for 1 substance.

The target of the test is mini-MUC1 polypeptide (product of the miMUC1 gene, human DF3/MUC1 with 7 variant tandem repeats) (human) (UniProt P15941). Kind of test: flow cytometry, 1 ug/ml DF3 MAb on MC38/MUC1 cells, fluorescein-labeled goat anti-mouse IgG.
Chain of UniProt P15941 (P15941 other isoform, or with tags, fused parts or gaps mutant, form in doubt): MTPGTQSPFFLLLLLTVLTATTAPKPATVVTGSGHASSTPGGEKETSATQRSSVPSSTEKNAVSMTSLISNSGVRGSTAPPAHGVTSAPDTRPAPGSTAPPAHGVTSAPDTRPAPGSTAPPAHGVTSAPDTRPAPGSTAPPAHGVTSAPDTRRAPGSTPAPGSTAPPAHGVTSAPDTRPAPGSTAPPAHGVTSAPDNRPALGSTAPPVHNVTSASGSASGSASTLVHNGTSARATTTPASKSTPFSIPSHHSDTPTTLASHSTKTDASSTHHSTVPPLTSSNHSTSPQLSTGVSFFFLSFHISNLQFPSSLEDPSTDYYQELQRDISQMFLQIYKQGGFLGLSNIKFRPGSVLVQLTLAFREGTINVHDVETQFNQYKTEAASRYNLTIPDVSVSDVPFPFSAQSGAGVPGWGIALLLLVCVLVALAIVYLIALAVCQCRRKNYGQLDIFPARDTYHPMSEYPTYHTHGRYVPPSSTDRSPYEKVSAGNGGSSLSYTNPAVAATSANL

On to DF3 monoclonal antibody (anti-MUC1), for which the mean fluorescence stood at 400 and the percent of cells positive was determined as 87.5%.
